Here are results for 2 substances from PMC8160712.

In the test the target is Recombinant protein G from Escherichia coli (group G Streptococci) (UniProt P06654). Description: total internal reflected imaging ellipsometry (TIRIE); protein G immobilised on EDC/NHS-activated MUA gold surface (100 μg/mL in the whole-process run); antibody flowed over for 20 min, rinsed with PBST; real-time grayscale signal.

With Anti-CD63 antibody [MEM-259], the TIRIE signal increase is 900 grayscale and the TIRIE signal increment with protein G was 650.

As for Anti-CD9 antibody [MEM-61], the TIRIE signal increase came out at 900 grayscale and the TIRIE signal increment with protein G is 640.
